Measurements as given in patent US20240142454A1 (UNIVERSITY OF KENTUCKY RESEARCH FOUNDATION, published 2024).
Where no end group is shown, it is not given here.

B1: mouse monoclonal antibody 26A6 (antibody, mouse IgG2b, kappa, V domains shown)
VH: EVQLQQSGPVLVKPGASVKMSCKASGYTFTDFYLNWVKQSHGKTLEWIGVINPYNGITRYNQKFGGTATLTVDKSSSTAYMELNSLTSEDSAVYYCSRGGKTYYFDYWGQGTTLTVSP
VL: DVVMTQSPLSLPVSLGDQASISCRSSQSLVHSNGNTYLHWYLQKPGQSPKLLIYKVSNRFSGVPDRFSGSGSGTDFTLKINRVEAEDLGVYFCSQSTHVPPVTFGGGTKLEIKR
notes: used as hybridoma supernatant or Protein G-purified; also called 26A6 mAb; hybridoma ATCC PTA-126751
B2: immunizing peptide CGGGESVLTLK (peptide)
peptide: CGGGESVLTLK
modifications: also: conjugated to KLH for immunization
notes: Conjugated to KLH for immunization; also called peptide antigen; peptide ESVLTLK424

Columns and labels:
[1] = biological target: B2; test: ELISA on the immunizing peptide
Description: These mice were selected for further boosting and fusion with a Sp2/0 myeloma partner. The resulting hybridomas were screened first in ELISA assays to the immunizing peptide and secondly in Western blot assays to the uncleaved and cleaved CN, to confirm that they selectively bound the cleaved CN. A positive clone was identified-26A6. This clone was developed/subcloned further and characterized as to isotype. 26A6 is an IgG2b with a kappa light chain.
ELISA assays were carried out at GenScript. The immunizing peptide itself was bound to plates at a concentration of 1 μg/ml, 100 μl per well and supernatants from the hybridomas were used to bind to the peptide. An anti-IgG-HRP conjugated secondary antibody was used to detect the primary 26A6 antibody.

[2] = biological target: B1; test: competition in immunofluorescence of human brain sections
Description: Slides were baked in a 40° C. oven overnight, then deparaffinized using SafeClear (Fisher Scientific, Hampton, NH), and rehydrated through a series of alcohols and finally into PBS. Antigen retrieval was carried out in pressurized decloaking chamber (BioCare Medical, Concord, CA), according to manufacturer's directions using the Borg antigen retrieval solution (BioCare Medical, Concord, CA). Following antigen retrieval, slides were washed 3× in PBS. For sections designated for staining with the β-amyloid antibody downstream, the sections were treated with 70% formic acid for 5 mins, then washed. All sections were treated with 3% H₂O₂ in methanol to block endogenous […] activity. Slides were washed in PBS and sections were either stained for immunofluorescence or immunohistochemistry.
For immunofluorescence, sections were incubated in blocking solution (PBS with 3% bovine serum albumin, 5% goat serum, and 0.05% Triton X 100) for 30 minutes, and incubated overnight at room temperature in primary antibody in that same blocking solution. Primary antibodies used were: rabbit anti-GFAP (1:200; catalog #12389, Cell Signaling Technology, Danviers, MA) and mouse 26A6 hybridoma supernatants diluted 1:5 or 10 ug/ml of purified 26A6 antibody. Sometimes 75 μg/ml immunizing peptide was included with the 26A6 antibody as a negative control. […]

binding result [1] | binding result [2] | Binder
binds |  | B1
 | binds | B2
